The values below come from patent publication US11505586B2, “Interaction of Draxin and γ-netrins” (Max-Planck-Gesellschaft zur Foerderung der Wissenschaften …, priority 2014, dated 2022).

One assay relates to Netrin1a/DCC. In words: AVEXIS based competition assay. In kind it is binding, zebrafish. The note with it: for inhibition of binding of Netrin1a to DCC: inhibitor added together with DCC prey, Netrin1a bait. From the text: (§1) The procedure of the competition assay is based on the AVEXIS assay. Netrin1 receptors were used as prey proteins together with 6×His ? tagged purified Draxin (potential antagonist), and probed against Netrin1a bait proteins. The indicated concentrations of the potential inhibitors have been added together with prey proteins. For the competition tests with purified Draxin the concentration of the Netrin receptor prey proteins has been adjusted to an identical threshold binding concentration.
We determined the concentration of ECD-hFc fusion proteins in tissue culture supernatants by ELISA, using the human IgG Fc fragment (Calbiochem) as a reference. Dilution series of the ECD-hFc containing supernatants have been incubated over night at 4° C. on 96 well Maxisorp plates (Nunc). After 3 PBS washes the plates were blocked with 0.5% BSA containing PBS (1 h). After additional 2 PBS washes and 1-hour incubation with an anti-human IgG (Fc specific) antibody fused to alkaline phosphatase (SIGMA) the plates have been washed 3 times with PBS. The detection has been carried out by addition of 50 μl/well of the AP substrate p-nitrophenylphosphate (SouthernBiotech). The substrate turnover has been determined by measuring the absorbance at 405 nm.
(§2) By using an AVEXIS-based competition assay (FIG. 6 A) we tested whether the binding of DraxinA to Netrin1a has an influence on Netrins ability to bind to Netrin receptors. First we confirmed that we reliably detected the binding of Netrin1a to Netrin receptors of the DCC/Neo1 and Unc5 families with the AVEXIS method. We also tested whether Draxin is able to bind to the corresponding Netrin receptors. […] This has also been confirmed by a recent publication (Haddick et al. 2014). In the competition assay the extracellular domains (ECDs) of Netrin receptors have been used as prey proteins together with purified full length DraxinA and probed for binding against Netrin1a bait proteins. […] The inhibition is specific for DraxinA.

A further assay concerns endogenous netrins. In words: In situ detection of Draxin binding partners with affinity probe. Details: species or system zebrafish. The protocol: A netrin binding fragment of Draxin (aa209-284) fused to the Fc region of human IgG (Draxinaa209-284-hFc) has been expressed in HEK293-6E cells and used as an affinity probe to detect binding partners in zebrafish embryos. Draxinaa209-284-hFc in situ staining has been done in whole mount wild type and netrin-1 knockdown zebrafish embryos. At 46 hpf wild type zebrafish embryos were dechorionated by for 2 hours at RT incubation in 0.1 mg/ml Pronase. At 48 hpf embryos were prefixed for 10 min at RT in 4% (w/v) paraformaldehyde (PFA) containing 1% Triton X-100 (v/v). After 3 washes (each 20 min) with PBS+1% Triton X-100 the embryos were blocked for 4 h at RT in PBS containing 0.2% BSA and 0.5% Triton X-100. Overnight incubation at 4° C. with HEK293-6E supernatant containing the Draxin-hFc fusion protein was followed by 3 short washes (10 min each) with PBST. Subsequently the embryos were post-fixed in 4% PFA (4 h at RT or overnight at 4° C.), rinsed shortly 3 times with PBST and incubated for 4 h at RT with an Alexa Fluor 568 goat anti human IgG antibody (Invitrogen, 1:250 dilution). After 3 washes (30 min each) in PBST the embryos were mounted in glycerol for visualization using a Zeiss LSM 510 microscope. […]

For a further assay, the system named is Netrin1a. The experiment in a line: AVEXIS extracellular protein-protein interaction screen. In kind it is binding, zebrafish. From the text: To detect extracellular protein-protein interactions in a high-throughput manner we used the AVEXIS assay as described in Bushell et al. (Bushell et al., 2008) with minor modifications.
In brief: A zebrafish protein library enriched for mainly in neuronal tissues expressed secreted proteins and extracellular domains of cell surface proteins has been assembled. The library consists of prey and bait proteins. Preys are composed of the extracellular domain (ECD) of interest followed by a CD4 tag (rat Cd4d3+4) and a pentamerization domain derived from the rat Comp protein followed by β-lactamase. For the bait proteins the ECDs are fused to a CD4 tag and a biotinylation peptide. […] The proteins in the supernatants have been quantified and normalized.
The bait proteins have been immobilized on streptavidin coated 96 well microtiter plates (one bait/well) and incubated for 1 hour at room temperature. […] Then the absorbance at 486 nm of each well has been measured using a μQuant spectrophotometer (BIO-TEK Instruments, INC). […]
In the primary screen interactions were ‘called’ if the absorbance (at 486 nm) of a well after 1 h of incubation was ≥0.1 and 3 Sigma above the standard deviations of the mean of all wells. All interactions detected in the primary screen have been retested in a validation screen by using independently produced batches of proteins.

In the next assay the test system is Netrin1a/Neo1. The experiment in a line: AVEXIS based competition assay. The note with it: purified protein with Neo1 prey, Netrin1a bait. The class given is binding, zebrafish.
Excerpt: as §1, §2

The subject of a further assay is Netrin1a/Unc5b. The experiment in a line: AVEXIS based competition assay. In kind it is binding, zebrafish. The note with it: purified protein with Unc5b prey, Netrin1a bait.
Excerpt: as §1, §2

A further assay relates to RGMc/Neo1. The experiment in a line: AVEXIS based competition assay. The class given is binding, zebrafish.
The target in another assay is T1, Netrin-1 (Homo sapiens, UniProt O95631).
T1 construct: made in house; host or cells: HEK293-6E (general AVEXIS method)
The experiment in a line: AVEXIS pairwise binding screen, human proteins. The following applies: both bait/prey orientations. From the text: (§3) AVEXIS was used to test pairwise binding events in both bait/prey orientations between human DRAXIN, the derived 21 amino acid peptide, human Netrin family members, and two representative Netrin receptors (DCC, UNC5B). The Matn4-bait served as an internal prey-protein control and was used for normalization of the A486 nm values; conditioned medium (CM) serves as negative control; n=3.
(§4) To determine the binding specificity of DRAXIN/Netrin interactions, we carried out a pairwise binding screen between human DRAXIN and human Netrin family members. Except Netrin-5, we included all human Netrin family members consisting of two secreted γ-Netrins (Netrin-1 and Netrin-3) and one secreted (Netrin-4) and two GPI-linked β-Netrins (Netrin-G1 and Netrin-G2) in our binding study. Human DRAXIN and a 21 amino acid Netrin binding fragment derived thereof (SEQ ID NO.: 1) bound to Netrin-1 and Netrin-3 but not to human β-Netrin family members (FIG. 13).

A further assay has as its target T2, Netrin-3 (Homo sapiens, UniProt O00634).
T2 construct: made in house; host or cells: HEK293-6E (general AVEXIS method)
In words: AVEXIS pairwise binding screen, human proteins. The note with it: both bait/prey orientations.
Excerpt: as §3, §4

Assay [1] deals with human β-Netrin family members. The experiment in a line: AVEXIS pairwise binding screen, human proteins. The following applies: Netrin-4, Netrin-G1, Netrin-G2.
Excerpt: as §3, §4

T2 sequence (O00634 28-580): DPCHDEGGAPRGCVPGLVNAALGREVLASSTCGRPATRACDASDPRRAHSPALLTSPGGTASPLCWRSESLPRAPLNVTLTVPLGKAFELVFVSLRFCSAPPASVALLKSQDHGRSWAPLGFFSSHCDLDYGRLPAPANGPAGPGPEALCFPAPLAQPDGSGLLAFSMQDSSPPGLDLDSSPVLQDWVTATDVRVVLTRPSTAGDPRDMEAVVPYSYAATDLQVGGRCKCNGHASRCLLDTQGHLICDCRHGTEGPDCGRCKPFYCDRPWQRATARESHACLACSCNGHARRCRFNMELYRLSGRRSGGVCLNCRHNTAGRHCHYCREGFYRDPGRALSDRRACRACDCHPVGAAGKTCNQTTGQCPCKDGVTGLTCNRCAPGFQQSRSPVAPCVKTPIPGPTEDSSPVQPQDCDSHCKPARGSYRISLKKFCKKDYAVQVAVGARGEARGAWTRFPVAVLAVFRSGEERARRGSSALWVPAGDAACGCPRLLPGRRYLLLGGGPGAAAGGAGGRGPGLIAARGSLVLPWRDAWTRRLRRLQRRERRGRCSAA

B1: DraxinA-hFc: full-length DraxinA fused to human Fc (protein)
chain: SEISSDNFKQSLTPSTTTSKEHPETGLTGGRQQKRHWSGKERDSAGLFSQRHMDRLEDDGTSMEGLSPVRLEMGPGDTMKAEVHGEVRASAQMRQGSHPAEGELNRKGRRHSHRLLAEHRKHGGKKDKGRGKGDLSDPEPELDSLLKDLNAFEDGLNTSPPNYNSVPLNEVPSPLSPILVTTAIKGHPPTLPPASTKPQKSSQGRTQGEVMPTLDMTLFDWTDYEDMKPADSWPSNKRKDKRRSKNKSNGNTTTEAGIVEPCDHHLDCLSGSCCDLREFECKPHNRGLNNKCFDDCMCEEGLRCYAKFHRKRRVTRRRGRCVDPESVNSNQGAFITV
modifications: left off: a dimerising Fc or GST
Regarding B1, the “inhibition of binding of Netrin1a to DCC” value in the assay with Netrin1a/DCC is “able to outcompete”.

B2: Draxinaa209-284-hFc: netrin binding fragment of Draxin (aa209-284) fused to the Fc region of human IgG, affinity probe (protein)
chain: GHPPTLPPASTKPQKSSQGRTQGEVMPTLDMTLFDWTDYEDMKPADSWPSNKRKDKRRSKNKSNGNTTTEAGIVEP
modifications: left off: a dimerising Fc or GST
B2: the “in situ signal of bound affinity probe” value in the assay on endogenous netrins (48 hpf netrin1a and netrin1b double-knockdown embryos) is “barely detectable”; with endogenous netrins (48 hpf wild type embryos), “only detect a signal in close proximity to the floor plate”.

B3: DraxinAΔaa231-252-hFc: DraxinA-hFc where the 21aa Netrin1 binding motif has been deleted (protein)
chain: SEISSDNFKQSLTPSTTTSKEHPETGLTGGRQQKRHWSGKERDSAGLFSQRHMDRLEDDGTSMEGLSPVRLEMGPGDTMKAEVHGEVRASAQMRQGSHPAEGELNRKGRRHSHRLLAEHRKHGGKKDKGRGKGDLSDPEPELDSLLKDLNAFEDGLNTSPPNYNSVPLNEVPSPLSPILVTTAIKGHPPTLPPASTKPQKSSQGRTQADSWPSNKRKDKRRSKNKSNGNTTTEAGIVEPCDHHLDCLSGSCCDLREFECKPHNRGLNNKCFDDCMCEEGLRCYAKFHRKRRVTRRRGRCVDPESVNSNQGAFITV
modifications: left off: a dimerising Fc or GST
In the case of B3, the “inhibition of binding of Netrin1a to DCC” value in the assay on Netrin1a/DCC is on record as “not able to compete”.

B4: DraxinA: full-length zebrafish Draxin isoform A (SEQ ID NO.: 5), 360 amino acids; purified as His-tagged CD4d3+4 fusion (protein)
chain: MVAPGLCQLFILLLITLSHTLHSSEISSDNFKQSLTPSTTTSKEHPETGLTGGRQQKRHWSGKERDSAGLFSQRHMDRLEDDGTSMEGLSPVRLEMGPGDTMKAEVHGEVRASAQMRQGSHPAEGELNRKGRRHSHRLLAEHRKHGGKKDKGRGKGDLSDPEPELDSLLKDLNAFEDGLNTSPPNYNSVPLNEVPSPLSPILVTTAIKGHPPTLPPASTKPQKSSQGRTQGEVMPTLDMTLFDWTDYEDMKPADSWPSNKRKDKRRSKNKSNGNTTTEAGIVEPCDHHLDCLSGSCCDLREFECKPHNRGLNNKCFDDCMCEEGLRCYAKFHRKRRVTRRRGRCVDPESVNSNQGAFITV
modifications: His-tagged CD4d3+4 fusion; Danio rerio
notes: purified as His-tagged CD4d3+4 fusion
For B4, the “binding of prey protein to Netrin1a bait” value in the assay with Netrin1a (pentameric prey, library of 171 bait proteins) is recorded as “specifically bound”. In the assay with Netrin1a/DCC (Netrin1a-baits preincubated with DCC preys, then purified DraxinA added), the “disruption of already formed DCC/Netrin1a complexes” value is on record as “can be disrupted”. Also, the “inhibition of binding of Netrin1a to DCC” value in the assay on Netrin1a/DCC is recorded as “concentration dependent inhibition”. Further, the “inhibition of binding of Netrin1a to Neo1” value in the assay with Netrin1a/Neo1 is reported as “concentration dependent inhibition”. Besides, the “inhibition of binding of Netrin1a to Unc5b” value in the assay with Netrin1a/Unc5b is “concentration dependent inhibition”. In addition, in the assay on RGMc/Neo1, the “inhibition of binding of RGMc to Neo1” value was “not able to block”.

B5: Human DRAXIN: human Draxin (SEQ ID NO.: 4) expressed as AVEXIS bait/prey protein (protein, listed as Homo sapiens)
chain: MAGPAIHTAPMLFLVLLLPLELSLAGALAPGTPARNLPENHIDLPGPALWTPQASHHRRRGPGKKEWGPGLPSQAQDGAVVTATRQASRLPEAEGLLPEQSPAGLLQDKDLLLGLALPYPEKENRPPGWERTRKRSREHKRRRDRLRLHQGRALVRGPSSLMKKAELSEAQVLDAAMEESSTSLAPTMFFLTTFEAAPATEESLILPVTSLRPQQAQPRSDGEVMPTLDMALFDWTDYEDLKPDGWPSAKKKEKHRGKLSSDGNETSPAEGEPCDHHQDCLPGTCCDLREHLCTPHNRGLNNKCFDDCMCVEGLRCYAKFHRNRRVTRRKGRCVEPETANGDQGSFINV
modifications: AVEXIS bait/prey tags
For B5, the “binding of human Draxin to zebrafish Netrin1a” value with Netrin1a (cross-species, both bait-prey orientations) is “able to bind”. For the same molecule, the “binding to Netrin-1” value with Netrin-1 was “bound”. The “binding to Netrin-3” value with Netrin-3 was “bound”. Also, in [1], the “binding to human β-Netrin family members” value is listed as “not”.
